The source of these data is the supplement of paper PMC6755084.

B1: minF1; a variant is named by its letters at N, in order (parent)
chain: GAGACCGCAACTGAAAAGTTGTTNNNNAANNNNGGNTNNATTTCTGCACGTAGAAGCAAAAGGC

The variants in this data set derive from B1. Kind of data set: fraction ligated after 30 min (ligated reads / total reads); higher = more ligase activity. To be noted: with F1*subA RNA substrate (template-directed ligation), 42 °C. On the procedure:
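Chip-synthesised pool of minF1 ligase ribozyme variants (single and double substitutions, single to quadruple deletions, bulge and P2 designed variants) was transcribed with T7 and reacted as a pool with excess substrate F1*subA for 30 min at 42 C in 50 mM EPPS pH 8.5, 25 mM MgCl2. Ligated and unligated RNAs were separated by PAGE, barcoded by RT and deep sequenced; fraction ligated = ligated reads / total reads, relative activity = FL / FL of wild-type minF1 (0.76); sequencing FL correlated with PAGE (R2 = 0.98). Sequences are the DNA template of the ribozyme.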
With GAGACCGCAACTGAAAAGTTGTTATCAAAATGGATGGTTATTTCTGCACGTAGAAGCAAAAGGC [ATCAATGGGTT G34A G35T T37G], the fraction ligated came to 0.00168.

With GAGACCGCAACTGAAAAGTTGTTATCAGAATGGAGGGTTGTTTCTGCACGTAGAAGCAAAAGGC [ATCAATGGGTT A28G G34A T37G A40G], the fraction ligated was found to be 0.000541.

In the case of GAGACCGCAACTGAAAAGTTGTTATCAGAATGAGGGTTGATTTCTGCACGTAGAAGCAAAAGGC [ATCAATGAGTG A28G], the fraction ligated was determined as 0.00439.

As to GAGACCGCAACTGAAAAGTTGTTATCAGAAGTGGGTTGAATTTCTGCACGTAGAAGCAAAAGGC [ATCAAGTGTGA A28G], the fraction ligated was 0.00275.

On to GAGACCGCAACTGAAAAGTTGTTATCAAAATGGAGGTTGATTTCTGCACGTAGAAGCAAAAGGC [ATCAATGGGTG G34A], for which the fraction ligated stood at 0.00542.

Turning to GAGACCGCAACTGAAAAGTTGTTATCAAAATGGTGGTTGATTTCTGCACGTAGAAGCAAAAGGC [ATCAATGGGTG G34T], the fraction ligated worked out at 0.00622.

For the variant GAGACCGCAACTGAAAAGTTGTTATCAGAATATGGGTTGATTTCTGCACGTAGAAGCAAAAGGC [ATCAATATGTG A28G], the fraction ligated was 0.00686.

As for GAGACCGCAACTGAAAAGTTGTTATCAGAATGATGGTTAATTTCTGCACGTAGAAGCAAAAGGC [ATCAATGAGTA A28G G34T], the fraction ligated was 0.00248.

Turning to GAGACCGCAACTGAAAAGTTGTTATCAGAATGGATGGTTATTTCTGCACGTAGAAGCAAAAGGC [ATCAATGGGTT A28G G34A G35T T37G], the fraction ligated was 0.00268.

For the variant GAGACCGCAACTGAAAAGTTGTTATCAGAAGGATGGGTTGTTTCTGCACGTAGAAGCAAAAGGC [ATCAAGGAGTT A28G G34T T37G A40G], the fraction ligated worked out at 0.000656.

Regarding GAGACCGCAACTGAAAAGTTGTTATCAGAAATGGGGGTTGTTTCTGCACGTAGAAGCAAAAGGC [ATCAAATGGTT A28G T37G A40G], the fraction ligated was 0.0011.

Take GAGACCGCAACTGAAAAGTTGTTATCAGAAGAGGGTTGAATTTCTGCACGTAGAAGCAAAAGGC [ATCAAGAGTGA A28G]: the fraction ligated amounted to 0.00247.

For the variant GAGACCGCAACTGAAAAGTTGTTATCAGAATGGGGGTTGATTTCTGCACGTAGAAGCAAAAGGC [ATCAATGGGTG A28G], the fraction ligated came to 0.00414.

Regarding GAGACCGCAACTGAAAAGTTGTTATCAGAATGGAGGGTTATTTCTGCACGTAGAAGCAAAAGGC [ATCAATGGGTT A28G G34A T37G], the fraction ligated was found to be 0.00259.

For GAGACCGCAACTGAAAAGTTGTTATCAGAAGGATGGTTAATTTCTGCACGTAGAAGCAAAAGGC [ATCAAGGAGTA A28G G34T], the fraction ligated turned out to be 0.00153.

With GAGACCGCAACTGAAAAGTTGTTATCAAAATGGTGGTTAATTTCTGCACGTAGAAGCAAAAGGC [ATCAATGGGTA G34T], the fraction ligated was determined as 0.0029.

For GAGACCGCAACTGAAAAGTTGTTATCAAAATGGAGGTTAATTTCTGCACGTAGAAGCAAAAGGC [ATCAATGGGTA G34A], the fraction ligated was 0.00177.

Take GAGACCGCAACTGAAAAGTTGTTATCAAAATGATGGGTTATTTCTGCACGTAGAAGCAAAAGGC [ATCAATGAGTT G34T T37G]: the fraction ligated is 0.00278.

Take GAGACCGCAACTGAAAAGTTGTTATCAAAAGGATGGGTTGTTTCTGCACGTAGAAGCAAAAGGC [ATCAAGGAGTT G34T T37G A40G]: the fraction ligated is 0.00198.

Turning to GAGACCGCAACTGAAAAGTTGTTATCAAAAGTGGGTTGAATTTCTGCACGTAGAAGCAAAAGGC [ATCAAGTGTGA], the fraction ligated amounted to 0.00229.

For GAGACCGCAACTGAAAAGTTGTTATCAGAATGATGGTTGATTTCTGCACGTAGAAGCAAAAGGC [ATCAATGAGTG A28G G34T], the fraction ligated turned out to be 0.00581.

Consider GAGACCGCAACTGAAAAGTTGTTATCAGAATGGTGGGTTATTTCTGCACGTAGAAGCAAAAGGC [ATCAATGGGTT A28G G34T T37G], for which the fraction ligated is 0.00191.

Consider GAGACCGCAACTGAAAAGTTGTTATCAAAATGATGGTTAATTTCTGCACGTAGAAGCAAAAGGC [ATCAATGAGTA G34T], for which the fraction ligated came out at 0.0033.

Regarding GAGACCGCAACTGAAAAGTTGTTATCAAAATATGGGTTGATTTCTGCACGTAGAAGCAAAAGGC [ATCAATATGTG], the fraction ligated was 0.00446.

With GAGACCGCAACTGAAAAGTTGTTATCAAAATATGGGTTAATTTCTGCACGTAGAAGCAAAAGGC [ATCAATATGTA], the fraction ligated came out at 0.00288.

On to GAGACCGCAACTGAAAAGTTGTTATCAGAATGGTGGTTAATTTCTGCACGTAGAAGCAAAAGGC [ATCAATGGGTA A28G G34T], for which the fraction ligated is 0.00241.

On to GAGACCGCAACTGAAAAGTTGTTATCAGAATGGAGGTTAATTTCTGCACGTAGAAGCAAAAGGC [ATCAATGGGTA A28G G34A], for which the fraction ligated stood at 0.00228.

On to GAGACCGCAACTGAAAAGTTGTTATCAGAATATGGTTGAATTTCTGCACGTAGAAGCAAAAGGC [ATCAATATTGA A28G], for which the fraction ligated was found to be 0.00433.

GAGACCGCAACTGAAAAGTTGTTATCAGAATGGTGGTTGATTTCTGCACGTAGAAGCAAAAGGC [ATCAATGGGTG A28G G34T]: the fraction ligated came out at 0.00456.

For GAGACCGCAACTGAAAAGTTGTTATCAGAATGGAGGTTGATTTCTGCACGTAGAAGCAAAAGGC [ATCAATGGGTG A28G G34A], the fraction ligated worked out at 0.00717.

As to GAGACCGCAACTGAAAAGTTGTTATCAAAAGGTGGTTGAATTTCTGCACGTAGAAGCAAAAGGC [ATCAAGGTTGA], the fraction ligated worked out at 0.00224.

On to GAGACCGCAACTGAAAAGTTGTTATCAGAATGGGGGTTAATTTCTGCACGTAGAAGCAAAAGGC [ATCAATGGGTA A28G], for which the fraction ligated turned out to be 0.000828.

As for GAGACCGCAACTGAAAAGTTGTTATCAGAATAGGGTTGAATTTCTGCACGTAGAAGCAAAAGGC [ATCAATAGTGA A28G], the fraction ligated was 0.00213.

For the variant GAGACCGCAACTGAAAAGTTGTTATCAAAAGATGGGTTAATTTCTGCACGTAGAAGCAAAAGGC [ATCAAGATGTA], the fraction ligated is 0.00295.

In the case of GAGACCGCAACTGAAAAGTTGTTATCAAAAGATGGGTTGATTTCTGCACGTAGAAGCAAAAGGC [ATCAAGATGTG], the fraction ligated amounted to 0.0129.

Take GAGACCGCAACTGAAAAGTTGTTATCAGAAGGAGGGTTGATTTCTGCACGTAGAAGCAAAAGGC [ATCAAGGAGTG A28G]: the fraction ligated stood at 0.00589.

With GAGACCGCAACTGAAAAGTTGTTATCAAAAGGATGGTTAATTTCTGCACGTAGAAGCAAAAGGC [ATCAAGGAGTA G34T], the fraction ligated was 0.00413.

GAGACCGCAACTGAAAAGTTGTTATCAGAATGAGGTTGAATTTCTGCACGTAGAAGCAAAAGGC [ATCAATGATGA A28G]: the fraction ligated is 0.000976.

Take GAGACCGCAACTGAAAAGTTGTTATCAGAAGGTGGGTTGATTTCTGCACGTAGAAGCAAAAGGC [ATCAAGGTGTG A28G]: the fraction ligated is 0.0012.

Take GAGACCGCAACTGAAAAGTTGTTATCAGAAATTGGGTTAATTTCTGCACGTAGAAGCAAAAGGC [ATCAAATTGTA A28G]: the fraction ligated came to 0.00076.

As to GAGACCGCAACTGAAAAGTTGTTATCAAAAGGAGGTTGAATTTCTGCACGTAGAAGCAAAAGGC [ATCAAGGATGA], the fraction ligated was 0.000429.

For GAGACCGCAACTGAAAAGTTGTTATCAGAAGATGGGTTAATTTCTGCACGTAGAAGCAAAAGGC [ATCAAGATGTA A28G], the fraction ligated came out at 0.00207.
